How the values were obtained:
luciferase reporters = conditions: glycan lost
GLI2 level in Daoy cells = conditions: glycan lost; control: DMSO
[1] = IP and acetylation immunoblot
[2] = Bcl2 promoter luciferase, HEK293T; conditions: WT Gli2
[3] = Gli2 level in primary GNPs; conditions: glycan lost; control: untreated GNPs
[4] = IP immunoblot from P30 cerebellum; conditions: glycan lost; control: SmoM2Atoh1 mice

B1: human GLI2: S358A (protein)
parent chain: METSASATASEKQEAKSGILEAAGFPDPGKKASPLVVAAAAAAAVAAQGVPQHLLPPFHAPLPIDMRHQEGRYHYEPHSVHGVHGPPALSGSPVISDISLIRLSPHPAGPGESPFNAPHPYVNPHMEHYLRSVHSSPTLSMISAARGLSPADVAQEHLKERGLFGLPAPGTTPSDYYHQMTLVAGHPAPYGDLLMQSGGAASAPHLHDYLNPVDVSRFSSPRVTPRLSRKRALSISPLSDASLDLQRMIRTSPNSLVAYINNSRSSSAASGSYGHLSAGALSPAFTFPHPINPVAYQQILSQQRGLGSAFGHTPPLIQPSPTFLAQQPMALTSINATPTQLSSSSNCLSDTNQNKQSSESAVSSTVNPVAIHKRSKVKTEPEGLRPASPLALTQGQVSGHGSCGCALPLSQEQLADLKEDLDRDDCKQEAEVVIYETNCHWEDCTKEYDTQEQLVHHINNEHIHGEKKEFVCRWQACTREQKPFKAQYMLVVHMRRHTGEKPHKCTFEGCSKAYSRLENLKTHLRSHTGEKPYVCEHEGCNKAFSNASDRAKHQNRTHSNEKPYICKIPGCTKRYTDPSSLRKHVKTVHGPDAHVTKKQRNDVHLRTPLLKENGDSEAGTEPGGPESTEASSTSQAVEDCLHVRAIKTESSGLCQSSPGAQSSCSSEPSPLGSAPNNDSGVEMPGTGPGSLGDLTALDDTPPGADTSALAAPSAGGLQLRKHMTTMHRFEQLKKEKLKSLKDSCSWAGPTPHTRNTKLPPLPGSGSILENFSGSGGGGPAGLLPNPRLSELSASEVTMLSQLQERRDSSTSTVSSAYTVSRRSSGISPYFSSRRSSEASPLGAGRPHNASSADSYDPISTDASRRSSEASQCSGGSGLLNLTPAQQYSLRAKYAAATGGPPPTPLPGLERMSLRTRLALLDAPERTLPAGCPRPLGPRRGSDGPTYGHGHAGAAPAFPHEAPGGGARRASDPVRRPDALSLPRVQRFHSTHNVNPGPLPPCADRRGLRLQSHPSTDGGLARGAYSPRPPSISENVAMEAVAAGVDGAGPEADLGLPEDDLVLPDDVVQYIKAHASGALDEGTGQVYPTESTGFSDNPRLPSPGLHGQRRMVAADSNVGPSAPMLGGCQLGFGAPSSLNKNNMPVQWNEVSSGTVDALASQVKPPPFPQGNLAVVQQKPAFGQYPGYSPQGLQASPGGLDSTQPHLQPRSGAPSQGIPRVNYMQQLRQPVAGSQCPGMTTTMSPHACYGQVHPQLSPSTISGALNQFPQSCSNMPAKPGHLGHPQQTEVAPDPTTMGNRHRELGVPDSALAGVPPPHPVQSYPQQSHHLAASMSQEGYHQVPSLLPARQPGFMEPQTGPMGVATAGFGLVQPRPPLEPSPTGRHRGVRAVQQQLAYARATGHAMAAMPSSQETAEAVPKGAMGNMGSVPPQPPPQDAGGAPDHSMLYYYGQIHMYEQDGGLENLGSCQVMRSQPPQPQACQDSIQPQPLPSPGVNQVSSTVDSQLLEAPQIDFDAIMDDGDHSSLFSGALSPSLLHSLSQNSSRLTTPRNSLTLPSIPAGISNMAVGDMSSMLTSLAEESKFLNMMT
other: transcriptional activity (luciferase reporters; control: wild type GLI2): decreases

B2: human GLI2: OSMI-1 (protein)
parent chain: B1 parent chain
expression_or_secretion (GLI2 level in Daoy cells): decreases

B3: human GLI2: S358D (protein)
parent chain: B1 parent chain
other: transcriptional activity (luciferase reporters; control: wild type GLI2): decreases

B4: Gli2 (GLI family zinc finger 2): S355A (protein)
parent chain: METSAPAPALEKKEAKSGLLEDSSFPDPGKKACPLAVAAAVAAHGVPQQLLPAFHAPLPIDMRHQEGRYHYDPHSVHSVHGPPTLSGSPVISDISLIRLSPHPAGPGESPFSAHHPYVNPHMEHYLRSVHSSPTLSMISAARGLSPADVAHEHLKERGLFSLAAPGTNPSDYYHQMTLMASHPTPYGDLLMQSGGAASAPHLHDYLNPVDASRFSSPRVTPRLSRKRALSISPLSDASLDLQRMIRTSPNSLVAYINNSRSSSAASGSYGHLSAGALSPAFTFPHPINPVAYQQILSQQRGLGSAFGHTPPLIQPSPTFLAQQPMTLTSISTMPTQLSSSSSNCLNDANQNKQNSESAVSSTVNPITIHKRSKVKTEAEGLRPASPLGLTQEQLADLKEDLDRDDCKQEAEVVIYETNCHWADCTKEYDTQEQLVHHINNEHIHGEKKEFVCRWQACTREQKPFKAQYMLVVHMRRHTGEKPHKCTFEGCSKAYSRLENLKTHLRSHTGEKPYVCEHEGCNKAFSNASDRAKHQNRTHSNEKPYICKIPGCTKRYTDPSSLRKHVKTVHGPDAHVTKKQRNDVHVRAPLLKENGDNEASAEPGGRGPEESVEASSTSHTVEDCLHIKAIKTESSGLCQSSPGAQSSCSSEPSPLGSAPNNDSGMEMPGTGPGSLGDLTALADTCPGADTSALAAPSTGGLQLRKHMSTVHRFEQLKREKLKSLKDSCSWAGPAPHTRNTKLPPLPVNGSVLENFNNTGGGGPAGLLPSQRLPELTEVTMLSQLQERRDSSTSTMSSAYTVSRRSSGISPYFSSRRSSEASPLGGLRPHNASSADSYDPISTDASRRSSEASQCSGGGPGLLNLTPAQQYNLRAKYAAATGGPPPTPLPGLDRVSLRTRLALLDAPERALPGACPHPLGPRRGSDGPTYSHGHGHGYAGAAPAFPHEGPNSSTRRASDPVRRPDPLILPRVQRFHSTHNMNPGSLPPCADRRGLHVQSHPSVDSNLTRNAYSPRPPSINENVVMEAVAAGVDGPGLECDLGLVEDELVLPDDVVQYIKAHTGGTLDDGIRQGYPTEGTGFPENSKLPSPGLQGHRRLAAADSNMGPSAPGLGGCQLSYSPSSNLNKSNMPVQWNEVSSGTVDALPTQVKPPPFPHSNLAVVQQKPAFGQYPGYNPQSVQSSSGGLDSTQPHLQLRGAPSASRGSYTQQPRQPAAGSQCLGMSAAMSPQASYSQAHPQLSPNIVSGSLNQFSPSCSNMAAKPSHLGLPQQMEVVPNATIMNGHQREHGVPNSSLAAVSQPHPVLSYPQQDSYQQGSNLLSSHQPGFMESQQNAGFGLMQPRPPLEPNTASRHRGVRSGQQQLYARTTGQAMVTSANQETAEAMPKGPAGTMVSLAPQPSQDTGRAQDQNTLYYYGQIHMYEQNGGCPAVQPQPPQPQACSDSIQPEPLPSPGVNQVSSTVDSQLLEPPQIDFDAIMDDGDHSSLFSGALSPTLLHNLSQNSSRLTTPRNSLTLPSIPAGISNMAVGDMSSMLTSLAEESKFLNMMT
other: Gli2 acetylation ([1]; glycan lost, control: wild type Gli2): increases
other: transcriptional activity (luciferase reporters; control: wild type Gli2): decreases

B5: Gli2 (GLI family zinc finger 2): OGT overexpression (protein)
parent chain: B4 parent chain
other: Gli2 acetylation ([1]; glycan gained, control: without OGT overexpression): decreases
other: transcriptional activity ([2]; glycan gained, control: pEGFP-C1 vector): increases

B6: Gli2 (GLI family zinc finger 2): S355D (protein)
parent chain: B4 parent chain
other: transcriptional activity (luciferase reporters; control: wild type Gli2): decreases

B7: Gli2 (GLI family zinc finger 2): OSMI-1 (protein)
parent chain: B4 parent chain
expression_or_secretion [3]: decreases
other: Gli2 acetylation ([1]; glycan lost, control: untreated, WT Gli2): increases
other: transcriptional activity ([2]; glycan lost, control: DMSO): decreases

B8: Gli2 (GLI family zinc finger 2): SmoM2Atoh1;OGTAtoh1 (OGT knockout in GNPs) (protein)
parent chain: B4 parent chain
other: Gli2 acetylation [4]: increases

Source: PMC9407465
